Laboratory results reported in publication PMC2831303.
Blank lines part the entries; values can stand above or below the molecule they belong to.

Legend:
[1] = molecular target: NorRΔGAF (GAF domain deleted form of E. coli NorR) (E. coli); assay: SEC
[2] = molecular target: NorRΔGAF (GAF domain deleted form of E. coli NorR) (E. coli); assay: negative-stain electron microscopy
[3] = molecular target: NorRΔGAF (GAF domain deleted form of E. coli NorR) (E. coli)
NorRΔGAF [4] = molecular target: T1, NorRΔGAF (Escherichia coli, UniProt P37013 178-504); assay: EMSA
T1 sequence: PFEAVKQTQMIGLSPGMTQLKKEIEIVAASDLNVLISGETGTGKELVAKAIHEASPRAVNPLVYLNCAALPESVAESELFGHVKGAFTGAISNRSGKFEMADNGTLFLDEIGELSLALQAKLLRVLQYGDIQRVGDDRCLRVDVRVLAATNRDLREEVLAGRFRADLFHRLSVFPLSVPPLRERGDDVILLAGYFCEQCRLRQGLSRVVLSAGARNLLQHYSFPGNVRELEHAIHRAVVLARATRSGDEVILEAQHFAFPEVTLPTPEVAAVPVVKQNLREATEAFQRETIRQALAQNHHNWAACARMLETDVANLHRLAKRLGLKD

NorRΔGAF [5] = molecular target: T1, NorRΔGAF; assay: gel filtration

stoichiometry N [1]: 2
stoichiometry N [2]: 6
ATPase activity against NorRΔGAF concentration with 21 bp NorR1 DNA (1:1): Keff [3]: 8.4 µM
Molecule: NorRΔGAF (GAF domain deleted form of E. coli NorR) (domain or fragment)

B1: NorR123 66 bp (dsDNA)
DNA 1: TCACTGTCAATTTGACTATAGATATTGTCATATCGACCATTTGATTGATAGTCATTTTGACTACTC
DNA 2: GAGTAGTCAAAATGACTATCAATCAAATGGTCGATATGACAATATCTATAGTCAAATTGACAGTGA
Kd (NorRΔGAF [4]): 174 nM

B2: NorR1 21 bp (dsDNA)
DNA 1: GATAGTCATTTTGACTACTCA
DNA 2: TGAGTAGTCAAAATGACTATC
binding result (NorRΔGAF [5]): binds
